The text below walks through data of patent US20190127468A1 (ONCOIMMUNE, published 2019).

Test [1] addresses T1, human CTLA-4Fc mutant protein M6 (human).
T1 construct: also called Mutant 6
Briefly: ELISA on coated target; binder 10 ng/ml.

In test [2] the target is T2, human CTLA-4Fc mutant protein M8 (human).
T2 construct: also called Mutant 8
Briefly: ELISA on coated target; binder 1000 ng/ml. On the technique in general: An ELISA detects its analyte on a solid surface through an enzyme-linked reagent.

Test [3] addresses T1, human CTLA-4Fc mutant protein M6. Nature of the test: ELISA on coated target; binder 1000 ng/ml.
For test [4], the target named is T3, Control IgG1-Fc (human, UniProt P01857-1 99-330 = IgG part, limits assumed).
T3 construct: domain: Fc; also called hIg-Fc; hIgG
Briefly: ELISA, plate-coated IgG1-Fc, biotinylated B7-1.

B1: human B7-1 Fc fusion protein (Fc fusion, UniProt P33681 35-242, looked up)
chain: VIHVTKEVKEVATLSCGHNVSVEELAQTRIYWQKEKKMVLTMMSGDMNIWPEYKNRTIFDITNNLSIVILALRPSDEGTYECVVLKYEKDAFKREHLAEVTLSVKADFPTPSISDFEIPTSNIRRIICSTSGGFPEPHLSWLENGEELNAINTTVSQDPETELYAVSSKLDFNMTTNHSFMCLIKYGHLRVNQTFNWNTTKQEHFPDN
modifications: biotinylated (sites not given)
notes: Control protein; Used biotinylated in soluble phase; also called Biotin-HB7-1; Biotin-hB7-1; not shown: Fc portion
With B1, the values for the OD450 in test [1], in test [2] and in test [3] were 0.279 OD, 3.63 OD and 3.41 OD, respectively.

B2: human B7-1 Fc fusion protein (Fc fusion, UniProt P33681 35-242, looked up)
chain: B1 chain
notes: also called B7-1 Ig; B7-1 Ig fusion protein; not shown: Fc portion, not described
On to B2, for which, in test [4], the binding result is “no binding”.
